Measured values published in paper PMC11547725, “Cold-Active Lipase from the Ice Cave Psychrobacter SC65A.3 Strain, a Promising Biocatalyst for Silybin Acylation” (Molecules, 2024).

Assays:
Experiment in all cases: purified protein
Format in all cases: biochemical, Psychrobacter sp. SC65A.3
[1] = substrate: CCCCCCCCCCCCCCCCCC(=O)Oc1ccc([N+](=O)[O-])cc1; details: 25 °C
[2] = substrate: CCCCCCCCCCCCCCCC(=O)Oc1ccc([N+](=O)[O-])cc1; details: 25 °C, 50 mM Tris HCl pH 7.2
[3] = substrate: CCCC(=O)Oc1ccc([N+](=O)[O-])cc1; details: 25 °C, 50 mM Tris HCl pH 7.2, substrate in ethanol

B1: PSL2 (Psychrobacter sp. SC65A.3) (protein)
chain: MSNSTVLSVNTLLNKAVKTLNLMSFGQDKNPKSTDINLSDEIIDIEESALQDSREDKGLSIKEKILEHHLMTNYQPHLLHYAIKSFGCLPTPILESLIKCLDGPTSKQYLHVDAHLRLILAVNSKLKTPLQLIEMSELRKRFATDAVAMQAPKVWQQASDNLLSNLKQFHKKGDSAISWQDRTITNADDGDMTIRCYQNETSDNGFGFKKEQTSNPDETVLLFFHGGGFCIGDLNTHHEFCHAICEQTGWPVISVDYRLAPEHPAPAAVRDCISAYAWLAEHCEEFGALPSRIVLAGDSAGGGLSTLMAQQIITPNKEAWLDLGDEGQKTFDILQGLPHPMAQMPLYPVTDIETDYPSWELYGEGLLLDHADVAIFDAACLENSPLPRQHILTSPMLGDNRQVCPSYVVAAELDVLRDEAFAYANQLKSFGIAVQTHTVLGAPHGFIHFMSVHQRLGQETQHIITGFANFVREIIKTRALLSA
[1]; 50 mM Tris HCl pH 7.2
  Km: 3.70 mM
[1]; 50 mM Tris HCl pH 7.2, text b41 swaps the kcat of butyrate and stearate, table value taken (fits kcat/Km)
  kcat/Km: 13.9 M⁻¹ s⁻¹
[2]
  Km: 4.30 mM
  kcat/Km: 5.75 M⁻¹ s⁻¹
[3]
  Km: 2.38 mM
[3]; text b41 swaps the kcat of butyrate and stearate, table value taken (fits kcat/Km)
  kcat/Km: 25 M⁻¹ s⁻¹
